T1: TrxA_ElaSub1_CBM-His fusion protein
T1 chain: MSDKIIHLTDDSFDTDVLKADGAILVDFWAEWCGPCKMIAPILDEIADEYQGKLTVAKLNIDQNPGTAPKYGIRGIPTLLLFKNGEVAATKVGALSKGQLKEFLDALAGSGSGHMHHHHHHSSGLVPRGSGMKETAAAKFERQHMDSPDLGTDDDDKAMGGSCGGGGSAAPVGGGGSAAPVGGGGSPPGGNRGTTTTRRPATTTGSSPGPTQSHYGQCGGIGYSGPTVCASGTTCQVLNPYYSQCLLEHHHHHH

T2: ElaSub1_CBM_His chimeric protein (variant 3), separated from the TrxA tag and coupled with Remazol Brilliant Blue
T2 chain: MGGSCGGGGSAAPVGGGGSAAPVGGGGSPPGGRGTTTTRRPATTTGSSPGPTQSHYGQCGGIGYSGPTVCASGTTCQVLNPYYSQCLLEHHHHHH

B1: recombinant expressed bovine enterokinase from Merck Millipore (protein)
chain: IVGGSDSREGAWPWVVALYFDDQQVCGASLVSRDWLVSAAHCVYGRNMEPSKWKAVLGLHMASNLTSPQIETRLIDQIVINPHYNKRRKNNDIAMMHLEMKVNYTDYIQPICLPEENQVFPPGRICSIAGWGALIYQGSTADVLQEADVPLLSNEKCQQQMPEYNITENMVCAGYEAGGVDSCQGDSGGPLMCQENNRWLLAGVTSFGYQCALPNRPGVYARVPRFTEWIQSFLH
B2: human leukocyte elastase (HLE) (protein)
chain: IVGGRRARPHAWPFMVSLQLRGGHFCGATLIAPNFVMSAAHCVANVNVRAVRVVLGAHNLSRREPTRQVFAVQRIFENGYDPVNLLNDIVILQLNGSATINANVQVAQLPAQGRRLGNGVQCLAMGWGLLGRNRGIASVLQELNVTVVTSLCRRSNVCTLVRGRQAGVCFGDSGSPLVCNGLIHGIASFVRGGCASGLYPDAFAPVAQFVNWIDSIIQ

Legend:
[1] = target: T1, TrxA_ElaSub1_CBM-His fusion protein
[2] = target: T2, ElaSub1_CBM_His chimeric protein …

Row | Protein | separation of the chimeric construct from the TrxA tag (SDS-PAGE) [1] | colour of the supernatant (dye release from the filter strip carrying the chimeric peptide, 30 min, 0.05 U/ml HLE) [2]
1 | B1 | The separation of the desired chimeric construct from the TrxA-Tag was verified by SDS-PAGE. | –
2 | B2 | – | Initially non coloured samples (clear supernatant) that exhibit elastase activity developed a blue colour
